Measurements published in patent publication US20180155451A1 (published 2018).

T1: FcγRIIa H (human, UniProt P12318 34-217)
T1 construct: extracellular domain; Soluble extracellular domain with C-terminal His tag, expressed in FreeStyle293 cells; also called FcgRIIa H; 2aH; not shown: C-terminal His tag
T1 sequence (looked up): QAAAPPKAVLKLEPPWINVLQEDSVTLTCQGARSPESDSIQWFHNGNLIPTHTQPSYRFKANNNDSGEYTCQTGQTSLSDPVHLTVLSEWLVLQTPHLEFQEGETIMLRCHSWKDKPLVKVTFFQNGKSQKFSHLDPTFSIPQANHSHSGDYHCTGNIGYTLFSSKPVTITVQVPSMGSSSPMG

T2: FcγRIIb (human, UniProt P31994 43-217)
T2 construct: extracellular domain; Soluble extracellular domain with C-terminal His tag, expressed in FreeStyle293 cells; also called FcgRIIb; 2b; not shown: C-terminal His tag
T2 sequence (looked up): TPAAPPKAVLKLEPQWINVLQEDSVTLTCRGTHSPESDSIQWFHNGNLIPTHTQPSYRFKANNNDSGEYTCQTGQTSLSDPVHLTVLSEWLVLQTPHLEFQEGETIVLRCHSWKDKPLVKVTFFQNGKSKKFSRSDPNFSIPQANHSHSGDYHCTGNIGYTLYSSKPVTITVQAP


Key:
FcγRIIa H = target: T1, FcγRIIa H; assay: SPR (Biacore), antibody captured, FcγR as analyte; relative to HeCon Ab
Procedure: (§1) The heterodimerized antibodies He Abs in which one of the H chains was introduced with an alteration were assayed for their binding activities to each activating FcγR and inhibitory FcγR according to the method described in Example 4. […] The activating FcγRs in FIGS. 26, 27, 28, and 29 are FcγRIa, FcγRIIa (R), FcγRIIa (H), and FcγRIIIa, respectively.
(§2) Analysis of interaction between objective antibody and the FcγR was carried out using Biacore T100 (GE Healthcare). HBS-EP+ (GE Healthcare) was used as the running buffer, and the measurement temperature was set to 25° C. Chips produced by immobilizing the antigen peptide by the amine coupling method to a Series S Sencor Chip CM5 (GE Healthcare), or alternatively, chips produced by allowing preliminarily biotinylated antigen peptides to interact with and immobilize onto a Series S Sensor Chip SA (certified) (GE Healthcare) were used. Antibodies of interest were captured onto an antigen peptide-immobilized chip, and allowed to interact to each FcγR diluted with running buffer. To regenerate and repeatedly use the chip, the antibodies captured on the chip were washed off by reacting 10 mM glycine-HCl, pH 1.5.

FcγRIIb = target: T2, FcγRIIb; assay: as above
Procedure: as §1, §2

Binder | He/Con_2aH (FcγRIIa H) | He/Con_2b (FcγRIIb)
GpH7-A5/GpH7-B3 variant G237_06M/GpL16-k0 (antibody, human IgG1, kappa, Heterodimerized anti-glypican-3 IgG1; alteration in the GpH7-B3 chain only; also called He Ab) heavy 1: not shown heavy 2: not shown light: DIVMTQSPLSLPVTPGEPASISCQASESLVHSNRNTYLHWYLQKPGQSPQLLIYKVSNRFSGVPDRFSGSGSGTDFTLKISRVEAEDVGVYYCSQNTHVPPTFGQGTKVEIERTVAAPSVFIFPPSDEQLKSGTASVVCLLNNFYPREAKVQWKVDNALQSGNSQESVTEQDSKDSTYSLSSTLTLSKADYEKHKVYACEVTHQGLSSPVTKSFNRGEC | 17.8 % of GpH7-A5/GpH7-B3/GpL16-k0 (=100) | 130 % of GpH7-A5/GpH7-B3/GpL16-k0 (=100)
GpH7-A5/GpH7-B3 variant G237_15Y/GpL16-k0 (antibody, human IgG1, kappa, Heterodimerized anti-glypican-3 IgG1; alteration in the GpH7-B3 chain only; also called He Ab) heavy 1: not shown heavy 2: not shown light: DIVMTQSPLSLPVTPGEPASISCQASESLVHSNRNTYLHWYLQKPGQSPQLLIYKVSNRFSGVPDRFSGSGSGTDFTLKISRVEAEDVGVYYCSQNTHVPPTFGQGTKVEIERTVAAPSVFIFPPSDEQLKSGTASVVCLLNNFYPREAKVQWKVDNALQSGNSQESVTEQDSKDSTYSLSSTLTLSKADYEKHKVYACEVTHQGLSSPVTKSFNRGEC | 25.4 % of GpH7-A5/GpH7-B3/GpL16-k0 (=100) | 152 % of GpH7-A5/GpH7-B3/GpL16-k0 (=100)
GpH7-A5/GpH7-B3 variant G237_19Q/GpL16-k0 (antibody, human IgG1, kappa, Heterodimerized anti-glypican-3 IgG1; alteration in the GpH7-B3 chain only; also called He Ab) heavy 1: not shown heavy 2: not shown light: DIVMTQSPLSLPVTPGEPASISCQASESLVHSNRNTYLHWYLQKPGQSPQLLIYKVSNRFSGVPDRFSGSGSGTDFTLKISRVEAEDVGVYYCSQNTHVPPTFGQGTKVEIERTVAAPSVFIFPPSDEQLKSGTASVVCLLNNFYPREAKVQWKVDNALQSGNSQESVTEQDSKDSTYSLSSTLTLSKADYEKHKVYACEVTHQGLSSPVTKSFNRGEC | 26.5 % of GpH7-A5/GpH7-B3/GpL16-k0 (=100) | 108 % of GpH7-A5/GpH7-B3/GpL16-k0 (=100)
GpH7-A5/GpH7-B3 variant P238_06M/GpL16-k0 (antibody, human IgG1, kappa, Heterodimerized anti-glypican-3 IgG1; alteration in the GpH7-B3 chain only; also called He Ab) heavy 1: not shown heavy 2: not shown light: DIVMTQSPLSLPVTPGEPASISCQASESLVHSNRNTYLHWYLQKPGQSPQLLIYKVSNRFSGVPDRFSGSGSGTDFTLKISRVEAEDVGVYYCSQNTHVPPTFGQGTKVEIERTVAAPSVFIFPPSDEQLKSGTASVVCLLNNFYPREAKVQWKVDNALQSGNSQESVTEQDSKDSTYSLSSTLTLSKADYEKHKVYACEVTHQGLSSPVTKSFNRGEC | 47.6 % of GpH7-A5/GpH7-B3/GpL16-k0 (=100) | 174 % of GpH7-A5/GpH7-B3/GpL16-k0 (=100)
GpH7-A5/GpH7-B3 variant G237_16H/GpL16-k0 (antibody, human IgG1, kappa, Heterodimerized anti-glypican-3 IgG1; alteration in the GpH7-B3 chain only; also called He Ab) heavy 1: not shown heavy 2: not shown light: DIVMTQSPLSLPVTPGEPASISCQASESLVHSNRNTYLHWYLQKPGQSPQLLIYKVSNRFSGVPDRFSGSGSGTDFTLKISRVEAEDVGVYYCSQNTHVPPTFGQGTKVEIERTVAAPSVFIFPPSDEQLKSGTASVVCLLNNFYPREAKVQWKVDNALQSGNSQESVTEQDSKDSTYSLSSTLTLSKADYEKHKVYACEVTHQGLSSPVTKSFNRGEC | 16.4 % of GpH7-A5/GpH7-B3/GpL16-k0 (=100) | 55.2 % of GpH7-A5/GpH7-B3/GpL16-k0 (=100)
GpH7-A5/GpH7-B3 variant G237_10E/GpL16-k0 (antibody, human IgG1, kappa, Heterodimerized anti-glypican-3 IgG1; alteration in the GpH7-B3 chain only; also called He Ab) heavy 1: not shown heavy 2: not shown light: DIVMTQSPLSLPVTPGEPASISCQASESLVHSNRNTYLHWYLQKPGQSPQLLIYKVSNRFSGVPDRFSGSGSGTDFTLKISRVEAEDVGVYYCSQNTHVPPTFGQGTKVEIERTVAAPSVFIFPPSDEQLKSGTASVVCLLNNFYPREAKVQWKVDNALQSGNSQESVTEQDSKDSTYSLSSTLTLSKADYEKHKVYACEVTHQGLSSPVTKSFNRGEC | 15.1 % of GpH7-A5/GpH7-B3/GpL16-k0 (=100) | 114 % of GpH7-A5/GpH7-B3/GpL16-k0 (=100)

Continued, values first:

He/Con_2aH (FcγRIIa H) | He/Con_2b (FcγRIIb) | Binder
56.4 % of GpH7-A5/GpH7-B3/GpL16-k0 (=100) | 110 % of GpH7-A5/GpH7-B3/GpL16-k0 (=100) | GpH7-A5/GpH7-B3 variant P238_19Q/GpL16-k0 (antibody, human IgG1, kappa, Heterodimerized anti-glypican-3 IgG1; alteration in the GpH7-B3 chain only; also called He Ab) heavy 1: not shown heavy 2: not shown light: DIVMTQSPLSLPVTPGEPASISCQASESLVHSNRNTYLHWYLQKPGQSPQLLIYKVSNRFSGVPDRFSGSGSGTDFTLKISRVEAEDVGVYYCSQNTHVPPTFGQGTKVEIERTVAAPSVFIFPPSDEQLKSGTASVVCLLNNFYPREAKVQWKVDNALQSGNSQESVTEQDSKDSTYSLSSTLTLSKADYEKHKVYACEVTHQGLSSPVTKSFNRGEC
37.7 % of GpH7-A5/GpH7-B3/GpL16-k0 (=100) | 50.7 % of GpH7-A5/GpH7-B3/GpL16-k0 (=100) | GpH7-A5/GpH7-B3 variant P238_14T/GpL16-k0 (antibody, human IgG1, kappa, Heterodimerized anti-glypican-3 IgG1; alteration in the GpH7-B3 chain only; also called He Ab) heavy 1: not shown heavy 2: not shown light: DIVMTQSPLSLPVTPGEPASISCQASESLVHSNRNTYLHWYLQKPGQSPQLLIYKVSNRFSGVPDRFSGSGSGTDFTLKISRVEAEDVGVYYCSQNTHVPPTFGQGTKVEIERTVAAPSVFIFPPSDEQLKSGTASVVCLLNNFYPREAKVQWKVDNALQSGNSQESVTEQDSKDSTYSLSSTLTLSKADYEKHKVYACEVTHQGLSSPVTKSFNRGEC
91 % of GpH7-A5/GpH7-B3/GpL16-k0 (=100) | 108 % of GpH7-A5/GpH7-B3/GpL16-k0 (=100) | GpH7-A5/GpH7-B3 variant S239_03V/GpL16-k0 (antibody, human IgG1, kappa, Heterodimerized anti-glypican-3 IgG1; alteration in the GpH7-B3 chain only; also called He Ab) heavy 1: not shown heavy 2: not shown light: DIVMTQSPLSLPVTPGEPASISCQASESLVHSNRNTYLHWYLQKPGQSPQLLIYKVSNRFSGVPDRFSGSGSGTDFTLKISRVEAEDVGVYYCSQNTHVPPTFGQGTKVEIERTVAAPSVFIFPPSDEQLKSGTASVVCLLNNFYPREAKVQWKVDNALQSGNSQESVTEQDSKDSTYSLSSTLTLSKADYEKHKVYACEVTHQGLSSPVTKSFNRGEC
